From article PMC9482650, “Quantitative fragmentomics allow affinity mapping of interactomes” (Nature Communications, 2022)

T1: PDZRN3_1, Q9UPQ7
T1 sequence (Q9UPQ7 244-349, limits assumed, looked up): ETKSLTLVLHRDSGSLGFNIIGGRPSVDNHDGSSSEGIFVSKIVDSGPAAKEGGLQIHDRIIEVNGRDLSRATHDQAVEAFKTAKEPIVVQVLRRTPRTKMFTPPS

T2: SNTG2, Q9NY99
T2 sequence (Q9NY99 68-166, limits assumed, looked up): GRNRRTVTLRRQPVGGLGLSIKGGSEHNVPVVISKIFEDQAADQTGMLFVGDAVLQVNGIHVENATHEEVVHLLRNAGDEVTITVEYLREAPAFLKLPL

T3: GRIP1_5, Q9Y3R0
T3 sequence (Q9Y3R0 568-668, limits assumed, looked up): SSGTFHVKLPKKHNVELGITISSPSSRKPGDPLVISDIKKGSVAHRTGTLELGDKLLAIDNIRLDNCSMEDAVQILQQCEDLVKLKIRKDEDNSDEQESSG

T4: LNX2_2, Q8N448
T4 sequence (Q8N448 334-432, limits assumed, looked up): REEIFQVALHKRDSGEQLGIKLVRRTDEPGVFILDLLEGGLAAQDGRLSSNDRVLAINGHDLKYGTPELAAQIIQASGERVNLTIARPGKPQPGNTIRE

T5: SNTG1, Q9NSN8
T5 sequence (Q9NSN8 52-150, limits assumed, looked up): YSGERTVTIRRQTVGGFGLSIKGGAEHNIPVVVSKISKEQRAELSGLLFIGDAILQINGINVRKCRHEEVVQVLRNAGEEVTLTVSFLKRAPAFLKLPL

T6: NHERF3_4, Q5T2W1
T6 sequence (Q5T2W1 373-468, limits assumed, looked up): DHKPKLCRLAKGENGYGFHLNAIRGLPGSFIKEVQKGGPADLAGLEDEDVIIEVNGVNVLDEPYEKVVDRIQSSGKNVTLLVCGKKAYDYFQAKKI

T7: TX1BP3, O14907
T7 sequence (O14907 10-122, limits assumed, looked up): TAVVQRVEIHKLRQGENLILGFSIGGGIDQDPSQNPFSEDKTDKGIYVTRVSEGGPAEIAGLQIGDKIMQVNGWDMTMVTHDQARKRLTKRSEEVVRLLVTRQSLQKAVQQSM

T8: SYNJ2BP, P57105
T8 sequence (P57105 8-110, limits assumed, looked up): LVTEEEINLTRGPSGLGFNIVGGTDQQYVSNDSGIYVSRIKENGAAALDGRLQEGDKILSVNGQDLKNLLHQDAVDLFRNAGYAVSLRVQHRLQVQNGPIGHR

T9: TIAM2, Q8IVF5
T9 sequence (Q8IVF5 885-986, limits assumed, looked up): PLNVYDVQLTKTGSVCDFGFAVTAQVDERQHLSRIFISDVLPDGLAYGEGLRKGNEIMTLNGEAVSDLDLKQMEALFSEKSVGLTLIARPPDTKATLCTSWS

T10: MPDZ_12, O75970
T10 sequence (O75970 1857-1958, limits assumed, looked up): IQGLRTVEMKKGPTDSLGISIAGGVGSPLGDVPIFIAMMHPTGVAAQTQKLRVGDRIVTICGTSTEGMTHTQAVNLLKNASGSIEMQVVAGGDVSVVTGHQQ


Legend:
Assay in all cases: holdup assay
Parameters in all cases: key: below the threshold = too weak to quantify, mostly under pKd 3.1 to 4
Conditions in all cases: plain residues with an end cap or a label only (N-terminal biotin on a linker: ttds)
PDZRN3_1, Q9UPQ7 = target: T1, PDZRN3_1, Q9UPQ7
SNTG2, Q9NY99 = target: T2, SNTG2, Q9NY99
LDB3, O75112 = target: LDB3, O75112
MAGI2_2, Q86UL8 = target: MAGI2_2, Q86UL8
DLG4_2, P78352 = target: DLG4_2, P78352
GRIP1_5, Q9Y3R0 = target: T3, GRIP1_5, Q9Y3R0
DLG4_3, P78352 = target: DLG4_3, P78352
FRMPD2_2, Q68DX3 = target: FRMPD2_2, Q68DX3
LNX2_2, Q8N448 = target: T4, LNX2_2, Q8N448
SNTG1, Q9NSN8 = target: T5, SNTG1, Q9NSN8
GRID2IP_1, A4D2P6 = target: GRID2IP_1, A4D2P6
NOS1, P29475 = target: NOS1, P29475
MAGI2_3, Q86UL8 = target: MAGI2_3, Q86UL8
NHERF3_4, Q5T2W1 = target: T6, NHERF3_4, Q5T2W1
TX1BP3, O14907 = target: T7, TX1BP3, O14907
IL16_1, Q14005 = target: IL16_1, Q14005
SYNJ2BP, P57105 = target: T8, SYNJ2BP, P57105
TIAM2, Q8IVF5 = target: T9, TIAM2, Q8IVF5
PARD3_3, Q8TEW0 = target: PARD3_3, Q8TEW0
MPDZ_12, O75970 = target: T10, MPDZ_12, O75970
GRID2IP_2, A4D2P6 = target: GRID2IP_2, A4D2P6
MAGI2_5, Q86UL8 = target: MAGI2_5, Q86UL8
SCRIB_2, Q14160 = target: SCRIB_2, Q14160
DLG5_1, Q8TDM6 = target: DLG5_1, Q8TDM6
SNX27, Q96L92 = target: SNX27, Q96L92
MAGI3_2, Q5TCQ9 = target: MAGI3_2, Q5TCQ9
FRMPD2_1, Q68DX3 = target: FRMPD2_1, Q68DX3
TJP1_2, Q07157 = target: TJP1_2, Q07157
Chain of TJP1_2, Q07157 (Q07157 181-274): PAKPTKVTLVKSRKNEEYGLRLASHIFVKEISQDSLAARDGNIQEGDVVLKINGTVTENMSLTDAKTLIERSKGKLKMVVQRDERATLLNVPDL

Chain of DLG4_3, P78352 (P78352 306-403): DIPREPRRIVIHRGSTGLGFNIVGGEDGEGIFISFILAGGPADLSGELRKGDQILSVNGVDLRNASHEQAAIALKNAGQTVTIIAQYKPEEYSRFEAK
Chain of FRMPD2_2, Q68DX3 (Q68DX3 944-1038): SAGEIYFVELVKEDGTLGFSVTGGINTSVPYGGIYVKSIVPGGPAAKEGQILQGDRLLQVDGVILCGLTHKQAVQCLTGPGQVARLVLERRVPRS
Chain of GRID2IP_2, A4D2P6 (A4D2P6 272-370): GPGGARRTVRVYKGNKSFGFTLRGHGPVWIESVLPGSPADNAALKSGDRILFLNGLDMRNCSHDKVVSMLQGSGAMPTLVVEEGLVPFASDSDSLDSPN
Chain of SCRIB_2, Q14160 (Q14160 857-960): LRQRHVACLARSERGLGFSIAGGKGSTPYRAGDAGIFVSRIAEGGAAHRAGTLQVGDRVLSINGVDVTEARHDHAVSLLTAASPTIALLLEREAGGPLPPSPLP
Chain of LDB3, O75112 (O75112 1-94): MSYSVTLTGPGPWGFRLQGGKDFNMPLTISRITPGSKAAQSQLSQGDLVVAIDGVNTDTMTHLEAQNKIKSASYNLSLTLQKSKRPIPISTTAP
Chain of PARD3_3, Q8TEW0 (Q8TEW0 582-685): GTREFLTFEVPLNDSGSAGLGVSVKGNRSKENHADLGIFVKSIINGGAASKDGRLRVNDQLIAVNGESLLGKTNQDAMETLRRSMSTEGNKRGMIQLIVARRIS
Chain of DLG4_2, P78352 (P78352 155-259): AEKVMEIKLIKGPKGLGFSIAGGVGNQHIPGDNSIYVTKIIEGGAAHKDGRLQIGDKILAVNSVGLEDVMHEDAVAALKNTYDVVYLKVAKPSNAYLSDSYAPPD
Chain of MAGI2_5, Q86UL8 (Q86UL8 915-1017): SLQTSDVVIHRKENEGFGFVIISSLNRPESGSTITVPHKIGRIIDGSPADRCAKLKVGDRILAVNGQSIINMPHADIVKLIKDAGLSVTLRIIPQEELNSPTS
Chain of NOS1, P29475 (P29475 9-101): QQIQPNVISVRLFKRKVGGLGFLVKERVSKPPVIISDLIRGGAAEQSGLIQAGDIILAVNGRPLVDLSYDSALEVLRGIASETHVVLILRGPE
Chain of MAGI3_2, Q5TCQ9 (Q5TCQ9 398-503): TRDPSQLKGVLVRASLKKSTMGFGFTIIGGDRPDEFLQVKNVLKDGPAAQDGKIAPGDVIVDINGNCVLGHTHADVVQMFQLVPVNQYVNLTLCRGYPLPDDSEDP
Chain of MAGI2_3, Q86UL8 (Q86UL8 600-682): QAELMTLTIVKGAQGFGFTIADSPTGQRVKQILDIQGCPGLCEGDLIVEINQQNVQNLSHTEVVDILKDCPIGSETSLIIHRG
Chain of MAGI2_2, Q86UL8 (Q86UL8 410-522): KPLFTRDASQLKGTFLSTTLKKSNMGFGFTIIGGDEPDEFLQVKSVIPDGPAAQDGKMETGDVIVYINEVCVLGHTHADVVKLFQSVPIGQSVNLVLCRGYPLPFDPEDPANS
Chain of IL16_1, Q14005 (Q14005 210-306): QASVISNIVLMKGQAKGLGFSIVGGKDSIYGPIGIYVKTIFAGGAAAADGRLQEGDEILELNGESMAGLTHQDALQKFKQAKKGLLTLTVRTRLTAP
Chain of GRID2IP_1, A4D2P6 (A4D2P6 1-87): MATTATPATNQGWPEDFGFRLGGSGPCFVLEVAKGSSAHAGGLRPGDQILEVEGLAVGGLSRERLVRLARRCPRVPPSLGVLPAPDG
Chain of FRMPD2_1, Q68DX3 (Q68DX3 770-861): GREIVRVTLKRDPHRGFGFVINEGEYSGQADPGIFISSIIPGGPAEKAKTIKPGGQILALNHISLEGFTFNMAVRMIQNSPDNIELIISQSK
Chain of DLG5_1, Q8TDM6 (Q8TDM6 617-713): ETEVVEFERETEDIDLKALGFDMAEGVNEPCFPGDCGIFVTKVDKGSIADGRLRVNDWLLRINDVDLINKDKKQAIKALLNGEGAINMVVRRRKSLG

Row | Binder | pKd (PDZRN3_1, Q9UPQ7) | pKd (SNTG2, Q9NY99) | pKd (LDB3, O75112) | pKd (MAGI2_2, Q86UL8) | pKd (DLG4_2, P78352) | pKd (GRIP1_5, Q9Y3R0) | pKd (DLG4_3, P78352) | pKd (FRMPD2_2, Q68DX3) | pKd (LNX2_2, Q8N448) | pKd (SNTG1, Q9NSN8) | pKd (GRID2IP_1, A4D2P6) | pKd (NOS1, P29475) | pKd (MAGI2_3, Q86UL8) | pKd (NHERF3_4, Q5T2W1) | pKd (TX1BP3, O14907) | pKd (IL16_1, Q14005) | pKd (SYNJ2BP, P57105) | pKd (TIAM2, Q8IVF5) | pKd (PARD3_3, Q8TEW0) | pKd (MPDZ_12, O75970) | further results
1 | QPGTPTRTAV [MAP2K2, P36507] | below the threshold | below the threshold | below the threshold | 3.64 | 4.12 | below the threshold | below the threshold | below the threshold | below the threshold | 3.66 | below the threshold | 3.96 | 3.6 | below the threshold | 3.97 | below the threshold | below the threshold | below the threshold | 3.54 | below the threshold | pKd (GRID2IP_2, A4D2P6): 4.27; pKd (MAGI2_5, Q86UL8): 3.59; pKd (SCRIB_2, Q14160): below the threshold; pKd (DLG5_1, Q8TDM6): below the threshold; pKd (SNX27, Q96L92): below the threshold; pKd (MAGI3_2, Q5TCQ9): 3.84; pKd (FRMPD2_1, Q68DX3): below the threshold; pKd (TJP1_2, Q07157): below the threshold
2 | CNTVTVETVV [MAS1, P04201] | below the threshold | 3.93 | below the threshold | below the threshold | 4.45 | 3.55 | below the threshold | below the threshold | 4.13 | 3.86 | below the threshold | below the threshold | 3.63 | 3.54 | below the threshold | below the threshold | 3.98 | below the threshold | below the threshold | below the threshold | pKd (GRID2IP_2, A4D2P6): below the threshold; pKd (MAGI2_5, Q86UL8): 3.95; pKd (SCRIB_2, Q14160): 3.47; pKd (DLG5_1, Q8TDM6): below the threshold; pKd (SNX27, Q96L92): 4.57; pKd (MAGI3_2, Q5TCQ9): 3.78; pKd (FRMPD2_1, Q68DX3): below the threshold; pKd (TJP1_2, Q07157): below the threshold
3 | TEEEVQDTRL [CFTR, P13569] | 4.01 | 4.37 | below the threshold | below the threshold | below the threshold | below the threshold | below the threshold | below the threshold | below the threshold | below the threshold | below the threshold | 3.53 | below the threshold | 4.08 | below the threshold | below the threshold | below the threshold | below the threshold | 3.89 | below the threshold | pKd (GRID2IP_2, A4D2P6): below the threshold; pKd (MAGI2_5, Q86UL8): below the threshold; pKd (SCRIB_2, Q14160): below the threshold; pKd (DLG5_1, Q8TDM6): below the threshold; pKd (SNX27, Q96L92): 5.56; pKd (MAGI3_2, Q5TCQ9): below the threshold; pKd (FRMPD2_1, Q68DX3): below the threshold; pKd (TJP1_2, Q07157): below the threshold

More lines, main results first:

Row | pKd (PDZRN3_1, Q9UPQ7) | pKd (SNTG2, Q9NY99) | pKd (LDB3, O75112) | pKd (MAGI2_2, Q86UL8) | pKd (DLG4_2, P78352) | pKd (GRIP1_5, Q9Y3R0) | pKd (DLG4_3, P78352) | pKd (FRMPD2_2, Q68DX3) | pKd (LNX2_2, Q8N448) | pKd (SNTG1, Q9NSN8) | pKd (GRID2IP_1, A4D2P6) | pKd (NOS1, P29475) | pKd (MAGI2_3, Q86UL8) | pKd (NHERF3_4, Q5T2W1) | pKd (TX1BP3, O14907) | pKd (IL16_1, Q14005) | pKd (SYNJ2BP, P57105) | pKd (TIAM2, Q8IVF5) | pKd (PARD3_3, Q8TEW0) | pKd (MPDZ_12, O75970) | Binder | further results
4 | 5.71 | 5.28 | below the threshold | 4.52 | 4.78 | below the threshold | 4.18 | below the threshold | below the threshold | 5.39 | below the threshold | 4.41 | below the threshold | below the threshold | 5.47 | below the threshold | 5.4 | below the threshold | below the threshold | below the threshold | NYWPGKETQL [SLCO1C1, Q9NYB5] | pKd (GRID2IP_2, A4D2P6): 4.29; pKd (MAGI2_5, Q86UL8): 3.87; pKd (SCRIB_2, Q14160): 4.24; pKd (DLG5_1, Q8TDM6): below the threshold; pKd (SNX27, Q96L92): 5.24; pKd (MAGI3_2, Q5TCQ9): 4.75; pKd (FRMPD2_1, Q68DX3): 4.05; pKd (TJP1_2, Q07157): below the threshold
5 | 3.75 | 4.54 | below the threshold | 4.4 | below the threshold | 3.52 | below the threshold | below the threshold | 3.6 | 3.88 | below the threshold | 3.7 | 3.63 | 3.65 | below the threshold | below the threshold | 3.82 | 3.5 | 3.71 | below the threshold | RRVRKLPSTTL [RPS6KA1, Q15418] | pKd (GRID2IP_2, A4D2P6): 5.05; pKd (MAGI2_5, Q86UL8): below the threshold; pKd (SCRIB_2, Q14160): below the threshold; pKd (DLG5_1, Q8TDM6): below the threshold; pKd (SNX27, Q96L92): 3.5; pKd (MAGI3_2, Q5TCQ9): 4.23; pKd (FRMPD2_1, Q68DX3): below the threshold; pKd (TJP1_2, Q07157): 3.51
